In IntAct's records for PubMed 31474574:

B1: Splicing factor 3B subunit 1 (Homo sapiens), O75533 (parent)
chain: MAKIAKTHEDIEAQIREIQGKKAALDEAQGVGLDSTGYYDQEIYGGSDSRFAGYVTSIAATELEDDDDDYSSSTSLLGQKKPGYHAPVALLNDIPQSTEQYDPFAEHRPPKIADREDEYKKHRRTMIISPERLDPFADGGKTPDPKMNARTYMDVMREQHLTKEEREIRQQLAEKAKAGELKVVNGAAASQPPSKRKRRWDQTADQTPGATPKKLSSWDQAETPGHTPSLRWDETPGRAKGSETPGATPGSKIWDPTPSHTPAGAATPGRGDTPGHATPGHGGATSSARKNRWDETPKTERDTPGHGSGWAETPRTDRGGDSIGETPTPGASKRKSRWDETPASQMGGSTPVLTPGKTPIGTPAMNMATPTPGHIMSMTPEQLQAWRWEREIDERNRPLSDEELDAMFPEGYKVLPPPAGYVPIRTPARKLTATPTPLGGMTGFHMQTEDRTMKSVNDQPSGNLPFLKPDDIQYFDKLLVDVDESTLSPEEQKERKIMKLLLKIKNGTPPMRKAALRQITDKAREFGAGPLFNQILPLLMSPTLEDQERHLLVKVIDRILYKLDDLVRPYVHKILVVIEPLLIDEDYYARVEGREIISNLAKAAGLATMISTMRPDIDNMDEYVRNTTARAFAVVASALGIPSLLPFLKAVCKSKKSWQARHTGIKIVQQIAILMGCAILPHLRSLVEIIEHGLVDEQQKVRTISALAIAALAEAATPYGIESFDSVLKPLWKGIRQHRGKGLAAFLKAIGYLIPLMDAEYANYYTREVMLILIREFQSPDEEMKKIVLKVVKQCCGTDGVEANYIKTEILPPFFKHFWQHRMALDRRNYRQLVDTTVELANKVGAAEIISRIVDDLKDEAEQYRKMVMETIEKIMGNLGAADIDHKLEEQLIDGILYAFQEQTTEDSVMLNGFGTVVNALGKRVKPYLPQICGTVLWRLNNKSAKVRQQAADLISRTAVVMKTCQEEKLMGHLGVVLYEYLGEEYPEVLGSILGALKAIVNVIGMHKMTPPIKDLLPRLTPILKNRHEKVQENCIDLVGRIADRGAEYVSAREWMRICFELLELLKAHKKAIRRATVNTFGYIAKAIGPHDVLATLLNNLKVQERQNRVCTTVAIAIVAETCSPFTVLPALMNEYRVPELNVQNGVLKSLSFLFEYIGEMGKDYIYAVTPLLEDALMDRDLVHRQTASAVVQHMSLGVYGFGCEDSLNHLLNYVWPNVFETSPHVIQAVMGALEGLRVAIGPCRMLQYCLQGLFHPARKVRDVYWKIYNSIYIGSQDALIAHYPRIYNDDKNTYIRYELDYIL
partner: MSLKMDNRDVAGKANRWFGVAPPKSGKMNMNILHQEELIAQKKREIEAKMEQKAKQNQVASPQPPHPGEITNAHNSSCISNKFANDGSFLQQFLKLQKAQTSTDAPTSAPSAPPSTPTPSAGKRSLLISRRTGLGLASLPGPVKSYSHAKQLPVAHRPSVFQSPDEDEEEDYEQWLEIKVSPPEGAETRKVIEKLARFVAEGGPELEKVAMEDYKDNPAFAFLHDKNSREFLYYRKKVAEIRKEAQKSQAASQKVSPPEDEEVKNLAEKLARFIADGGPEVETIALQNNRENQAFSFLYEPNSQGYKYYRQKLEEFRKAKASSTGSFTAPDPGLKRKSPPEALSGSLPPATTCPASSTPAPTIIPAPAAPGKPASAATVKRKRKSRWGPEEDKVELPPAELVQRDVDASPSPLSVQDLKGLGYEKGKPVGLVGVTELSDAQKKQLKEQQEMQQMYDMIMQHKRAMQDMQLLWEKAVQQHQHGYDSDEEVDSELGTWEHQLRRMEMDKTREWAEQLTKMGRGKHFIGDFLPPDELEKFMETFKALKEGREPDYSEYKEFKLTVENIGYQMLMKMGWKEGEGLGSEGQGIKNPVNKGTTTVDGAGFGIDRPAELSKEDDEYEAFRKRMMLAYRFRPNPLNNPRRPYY
B2: SURP and G-patch domain-containing protein 1 (Homo sapiens), Q8IWZ8 (parent)
chain: B1 partner

Variants of: B1
Conditions: with sugp1_human SUGP1, Q8IWZ8

Row | Variant | effect of a mutation on the interaction
1 | R625C | disrupting interaction strength
2 | E622D | disrupting interaction strength

Results, then the variant that gave them:

Row | effect of a mutation on the interaction | Variant
3 | decreasing interaction strength | K666N
4 | disrupting interaction strength | K700E
5 | disrupting interaction strength | H662Q

Variants of: B1
Conditions: with sugp1_human SUGP1, Q8IWZ8
Remark: another data set of the same source

Row | effect of a mutation on the interaction | Variant
6 | decreasing interaction strength | K700E

Variants of: B2
Conditions: with U2AF2, P26368
Chain of U2AF2, P26368 (P26368 whole entry): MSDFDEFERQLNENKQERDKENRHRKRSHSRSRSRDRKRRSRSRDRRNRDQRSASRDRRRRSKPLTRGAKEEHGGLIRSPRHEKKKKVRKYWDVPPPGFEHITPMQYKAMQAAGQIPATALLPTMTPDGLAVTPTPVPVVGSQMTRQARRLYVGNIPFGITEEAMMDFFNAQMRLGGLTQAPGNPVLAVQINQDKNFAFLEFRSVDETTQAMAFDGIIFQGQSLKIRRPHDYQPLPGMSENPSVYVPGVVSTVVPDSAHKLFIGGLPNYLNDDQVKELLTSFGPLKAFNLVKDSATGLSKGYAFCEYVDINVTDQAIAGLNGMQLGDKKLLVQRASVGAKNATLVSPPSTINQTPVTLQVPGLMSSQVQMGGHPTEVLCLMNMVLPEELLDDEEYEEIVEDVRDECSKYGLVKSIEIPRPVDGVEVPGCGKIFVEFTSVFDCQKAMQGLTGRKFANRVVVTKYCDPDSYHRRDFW

Row | effect of a mutation on the interaction | Variant
7 | disrupting interaction strength | W387A
